B1: Protein S100-B (Homo sapiens), P04271 (parent)
chain: MSELEKAMVALIDVFHQYSGREGDKHKLKKSELKELINNELSHFLEEIKEQEVVDKVMETLDNDGDGECDFQEFMAFVAMVTTACHEFFEHE
B2: Protein S100-B (Homo sapiens), P04271 (parent)
chain: B1 chain
partner: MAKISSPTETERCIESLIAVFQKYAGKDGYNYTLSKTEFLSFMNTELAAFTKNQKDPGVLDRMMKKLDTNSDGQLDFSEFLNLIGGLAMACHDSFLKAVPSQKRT

Variants of B1 are the subject of one assay. Conditions: with S100A6, P06703.
Consider MSELEKAMVALIDVFHQYSGREGDKHKLKKSELKELINNELSHFLEEIKEQEVVDKVMETLDNDGDGECDFQEFMAFVAMVTTACHEFAEHE, for which the “effect of a mutation on the interaction” value is reported as “decreasing interaction”.

A further assay covers variants of B1. Conditions: with S100A6, P06703. This is another data set of the same source.
With MSELEKAMVALIDVFHQYSGREGDKHKLKKSELKELINNELSHFLEEIKEQEVVDKVMETLDNDGDGECDFQEFMAFVAMVTTACHEAFEHE, the “effect of a mutation on the interaction” value is listed as “decreasing interaction”.

In the next assay the parent is B2. Conditions: with S100A11, P31949.
Turning to MSELEKAMVALIDVFHQYSGREGDKHKLKKSELKELINNELSHFLEEIKEQEVVDKVMETLDNDGDGECDFQEFMAFVAMVTTACHEFAEHE, the “effect of a mutation on the interaction” value was “decreasing interaction”.

These data come from IntAct's records for PubMed 10913138.
